Test results published in the DeepSol protein solubility set.

Experiment: soluble on expression in E. coli; label from the status in PepcDB or PDB records

Sequence | soluble on expression in E. coli
MSLTFCYPCRAFALLTRGFTSFMSGWPRIYYKLLNLPLSILVKSKSIPADPAPELGLDTSRPIMYVLPYNSKADLLTLRAQCLAHDLPDPLEPLEIDGTLLPRYVFIHGGPRVFTYYTPKEESIKLFHDYLDLHRSNPNLDVQMVPVSVMFGRAPGREKGEVNPPLRMLNGVQKFFAVLWLGRDSFVRFSPSVSLRRMADEHGTDKTIAQKLARVARMHFARQRLAAVGPRLPARQDLFNKLLASRAIAKAVEDEARSKKISHEKAQQNAIALMEEIAANFSYEMIRLTDRILGFTWNRLYQGINVHNAERVRQLAHDGHELVYVPCHRSHMDYLLLSYVLYHQGLVPPHIAAGINLNFWPAGPIFRRLGAFFIRRTFKGNKLYSTVFREYLGELFSRGYSVEYFVEGGRSRTGRLLDPKTGTLSMTIQAMLRGGTRPITLIPIYIGYEHVMEVGTYAKELRGATKEKESLPQMLRGLSKLRNLGQGYVNFGEPMPLMTYLNQHVPDWRESIDPIEAVRPAWLTPTVNNIAADLMVRINNAGAANAMNLCCTALLASRQRSLTREQLTEQLNCYLDLMRNVPYSTDSTVPSASASELIDHALQMNKFEVEKDTIGDIIILPREQAVLMTYYRNNIAHMLVLPSLMAAIVTQHRHISRDVLMEHVNVLYPMLKAELFLRWDRDELPDVIDALANEMQRQGLITLQDDELHINPVHSRTLQLLAAGARETLQRYAITFWLLSANPSINRGTLEKESRTVAQRLSVLHGINAPEFFDKAVFSSLVLTLRDEGYISDSGDAEPAETMKVYQLLAELITSDVRLTIESATQGEEGHHHHHH | soluble
MSLTFEEKLSQMYNEIANEISGMIPVEWEKVYTIAYVDDEGGEVVFNYTKPGSEDLNYYSDIPKDCNVSKDIFKNSWFKVYRMFDELRETFKKEDLEPWTSCEFDFTRKGNLKVSFDYIDWIKLGFGPSGKENYYMYKKFGILPDMEYEMEEIRAVEKYVKEEGHHHHHH | soluble
MSLTGKPIVLGLTISTTAAAGVADHADHMNGSLLAQEEINANGGILGRPLELRPVDVDLLSAESCQASIRKLVDLKVHAISSPFLFVPIPAMDASANYKCPYVNGNTQRAATDMVAKHPEKYNHIFQMDPSEVFYGETFPVFLESLADSGNWKPKNNKVHIVQEQIAYCQTISRACQEALKKSRFELAKVTDIQYPVQDWGSVIRDIKKTGAGTVMMDHWVAAEYAAFCKQFRANPLKGTLIYLQYGPSQPEFLELTGKAAEGFVWSTMLGVYADKKGQAFRDKYQKRFPGKTMGLCYTGGGYDIAYMMAQAWNAVGNPDDFKAVNDYIRKTAFRGVCGWSYMNNPRQEARHFPLGTDSIESGMSQLYFQIQDGKNKIIYPPQLKEGHHHHHH | soluble
MSLTGLCDSHLHTPLCGHATGTPREYAQAALDAGLSGLCFTDHMPMPRWYDAPWRMKLEQLPEYIAEIQAVQQEFAGRLDVRLGLEADFHPGTEKFVEKVLGMFDWDYVIGSVHYLGAWGFDNPEFVAEYEERDLGGLYRDYYALVEGAARSGLFDAIGHLDLPKKFGHLDPDPVYALHALDVVAGQGLALDFNTAGWRKPVAEAYPAPDLVRAAAERGIPFVLGSDAHQPGEVGFRFADAVKEIRDVGGRTVTFRHRKMQEGHHHHHH | soluble
MSLTGRAFAIPLRTRFRGITVREGMLVRGAAGWGEFSPFAEYGPRECARWWAACYEAAELGWPAPVRDTVPVNATVPAVGPEEAARIVASSGCTTAKVKVAERGQSEANDVARVEAVRDALGPRGRVRIDVNGAWDVDTAVRMIRLLDRFELEYVEQPCATVDELAEVRRRVSVPIAADESIRRAEDPLRVRDAEAADVVVLKVQPLGGVRAALRLAEECGLPVVVSSAVETSVGLAAGVALAAALPELPYACGLATLRLLHADVCDDPLLPVHGVLPVRRVDVSEQRLAEVEIDPAAWQARLAAARAAWEQVEREPGPEGHHHHHH | soluble
MSLTGTSAIENVDSGNEESMIYQQVGDQTKVLTENDKYLVKCINSFNAEQLPIPSHVPFYSTIDGVNKQCSYNDNENLYVWNFINSKWDDSNYCKIPLNTDSSSSVNALPKSVFILPTNYDTDAEMLGLENSNSSNGIVGGVILVENTADATYLVYYEDMRSINHLSTSISKNMAHLLDLKLHSEEKVTLMLNSEPAGLVLATTEGRLMFITIRETNGKPCLTLKQQLIRPKGSGPLAFLSLFSSSNEIISLRNGPIIGKGERIVYVLTRNGRFQVWKLSVASKCVKMMDTNFYDSILDDLVELYPFAQGSLKILDTHPITNQPFSPQVVLTQISSSDETNFILSTIILDEQTNSFTIFSTYRLNTYIMKGNSALAKPKLCVPSSLQSATSKYFDLFIVFDKAVVITQTSSKLDSTYTLKRKWEDIISFNKEIQILAESNDASTVYLLTKGMGIISIIPKKERGETAYEESFVKSHLDQAIYFSSSSSNPVEFNLPGGLHLEQDEVENDLKTASEEILLSSSKYIPPLTDNIEKHLSLRLVYFRNLISFVKDNFAFSISPSKKLDIIENFELLNCFHKFNNFISSSNFELKSFWDRTLEANGNINEIELAVEKIHRFPDLFSTYLNTIIKELPSKSYTFKLTLADLIIETIYDAILEEGEKKLRYEFLSLDPLELNTHLPWFISIDILDSINQLFFDLKFSLEGQEKNANTQLLVIVKTLYYLFNQVRLFFLKENNMNDVSAQDFMKKCDQLYENNHLAWNQTLCELGLNEDSLEISEFYHDFVSLVETLDTLEAVESKALYEEYFARFGEQFAHTLFEYYVKKSKLQDLFYRFPEQQEFLVSFFKKYPQYGRVSWIFSIINYDYASAAATLYDITSGDRASAMTLESAQLYLNIAKLSTLAAHENHANVNLLGALKRIQANLDVVDGGKDLVEKLKRVDGAPSHLQANYKGTEFEKLFDLLVKKVTNGTMLQFVEVVILYSLIDDKECLYHALKLLAIDGDILELELKKFLISLIWRRSILFDIQNAYDTTSEDSTLHFVLKQYLEDELFRANCPLPTVGVLTEKTMFTESLLSSLFSNYELDTKKLQDILEKEYNTVESTAVDIEKRIIETISSLDKANDNSYTVNYHDLTIEYQNEGHHHHHH | soluble
MSLTHLFYLTRGAPLSLKENYYPWLKAGSFFPDALYSCAPSNKDWSDFAEFTHWPNFLMIAVSYWQQKYGQNDRLRGTHGSLALKSFLIGVFTHQIVDVSWHSLVTDYRMHGLLRVLSETEFDGDIETAHTFLDVMGEFLTLNNVIRDSNNNENWDFLTRSDWKLPREEDLMEIIRNAGLSKEKLSYAELEFCVKRGMAAAISEGYLFRSQRNQLLTNIYSTSPRANDLILNHWLGGQSNLVAMLQRCVPFFETLFHDENTNEAQAEELRLCANLPPVSQKRINARPLVSSLKARKGNSHIVVSPMKSFSDFGTSLTMGKFREDNKDYLAVSAPLEDTVGAIYIVPWDILTVARKEDFSILQPITAMYGSKVGTYKASDVDYLLVSQPGTCTIDFYFKGVKILTIKDETTEEAHQLQFAVTGNFYDDKIPDLVVSSPSYGANETGIATFIPGSSIISYLTNSDKYQVVDISTFKGVINLDGYPMKIPFQHFGATIQISDTTDKQKLIYITCQSLGTVFVYSSNDLHDLSIPIYYITKNGVIPAKDSDHVEWHIIPSKEHGMFGAAIYSWNFEGMSFVAVSQPMFDTVFIYIEKSGQIEFFLKLVLKIKTKSDSIPDEFGSSLLFNDEEKKLYVSSPGSFDARGSIWKISMDELLKAGNDPKRKTLLINNLRHLMLINPDKSSKGVSNFGNSMILGPQNHLIVGIPQYGYGNFDHMQLTGRILVLEGHHHHHH | not soluble
MSLTHVIWDMGETLNTVPNTRYDHHPLDTYPEVVLRKNAKETLEKVKQLGFKQAILSNTATSDTEVIKRVLTNFGIIDYFDFIYASNSELQPGKMEKPDKTIFDFTLNALQIDKTEAVMVGNTFESDIIGANRAGIHAIWLQNPEVCLQDERLPLVAPPFVIPVWDLADVPEALLLLKKISEGHHHHHH | soluble
MSLTIYGVYRSRATRTLWLAAELGIEFKHVPVIQARRLADPLATDAPLNTLSPAFLAVNPMGTIPCIEDDGMVLYESMAINLYLARKYGGPLAPVDLKEDAAMLQWSFFAATEIETNSLKISSAIAEGLAESDAGKAVIDVAARLLKRPLRVLEQHLATHDYLVGDRFTVADLNVAEIVRYAQGHQPLFDAHPALKAWLARCQARTAFKSMWDSRTAEGHHHHHH | soluble
MSLTKEEMRNAILDIFQSNPQSVMNYKQVSHLMGVEAAPQKLMVNSLMEDMAVDDILHEIERGRYRYNALGLIVIGTFERRFNGRNSFIPEGGGTPIFIAERNSAHAMDGDKVKVQLFAKRRGRAPEAAVIEIIEQKQATFVGKIQINRDFAFLVTEDRTLANDIFIPKDNLGNAKNGDKVIVRILEWPEQSKNPIGEVQAVLGPAGDNDAEMNAILAEFGLPYVYPQEVEEAADRLDGKITEEELARREDFRSILTFTIDPKDAKDFDDAISFRPLEDDCYEVGVHIADVSHYVTEGGIIDQEAYNRATSIYLVDRTIPMLPERLCNDLCSLRPDEEKYAYSCIFRMNDEAKVLDYRICHSVIKSDRRFAYEEAQAVIETGEGDCKEAILKLNELAQRLRKERFQNGAIAFERKEVRFEIDEKGRPLGVIVKESKEANKLIEEFMLLANRTVARHIGEETQGKRAKTFVYRIHDLPDPDKLETLSDFIRRFGYKLRTTGSNVEVSKSINSLLDNIQNKPEENLISTVAIRSMAKAIYSTDNIGHYGLAFDFYTHFTSPIRRYPDLMVHRLLTKYLSGGSSVDKNDYEEKCKHSSAMEQLAASAERASIKYKQVEFMSEHLGKVFDGVISGVTEWGLYVELKENMCEGLIPIRCLDDDYYEYDDKNFCLIGRRYRHRYSLGDAITVRVAQANLDRKQLDFEPVSEGHHHHHH | soluble
MSLTKHVAVLLAHGFEEAEAVIFIDIMRRLDIRVDILSCEATTALSTYFETPISADALLSDRLDHHYDAVMMPGGPKGTDSLTANPQVIAFLRRHIAQDKYICALCSSGAKVLAAHHLLAGRTYSTGDKLADKFADGVYLDQDVVVDGKFITAKGLGVSFEFAFTVARHLLSDNLPKVEHQASHIYFKHGSAEGHHHHHH | soluble
MSLTLISLQTFAAAWEEKLYNPMPDAEDVVLPMPCDGAMVFRKVYIPLAGPLDDYPVNIGGDNAEYGYVEQTHPAFIAGSFTTEKNAKSRYYLLAKYEMTVLQYSALTQAECPAPSNKQRLPVVSLSWMQAMEAADKYNIWLRENAADKLPKEDGVAGFLRLPTEVEWEFAARGGLNVSTAEFRDLRYPMPEGVNAYEWFAGTQSANGQLQLSGLLKPNPLGLHDMLGNVDEMMFEPFRLNKLDRQHGQAGGYVVRGGDFRTAQGELRSSLRKERNYYDAKAAATSKTTGVRLALASSTLTSRERVSSIETSWKEGHHHHHH | not soluble
MSLTLSIPPSIQCQTEAACRLITRVTGDTLRAIHLYGSAVAGDLKPNSDIDLLVTICQPLTETQRATLMQELLALSSPPGASAEKRALEVTVVLYSQLVPWCFPPSREMQFGEWLREDIYQGIYEPAQQDWDMVLLITQILETSIPLKGERAERLFTPAPAAQLLKALRYPLDLWQSTADVQGDEYHIVLTLARIWYTLSTGRFTSKDAAADWLLPQLPEEYAATLRAAQREYLGLEQQDWHILLPAVVRFVDFAKAYIPTQFTEGHHHHHH | soluble
MSLTLTIEEIAKTKKLLVVSDFDGTIAGFSKDAYNVPINQKSLKAVKDLSQQADTDVVILSGRHLEGLKTVLDLGQYDITMVGSHGSEDSSRPRTLTPEEVARLAKIEADLEKIVDGIEGAFVEIKPFHRVLHFIRVSDKDKVQGILAQAAHVDSSGLKVTNGKSIIEYSISSTTKGTWLKEYVDRTEPTGVIFLGDDTTDEHGFKALENDDRALTVKVGEGDTAAKTRVDDVDNVGIFLEKLAYHRMQYAESVRLGEGHHHHHH | soluble
